18 sequences from a protein production outcome set (Wang et al. 2014) can be followed below.

The data set in a line: label from the status in PepcDB records.

As for “MTLPRLILPLLIAAACALGGCAYNPDLGRDQLLIVNDNNLARDGEKAWADALRTSHVSKEPRKNARVQAVGQRVIVAAGLAGRPWEYAVFLEEAPNAFVLPGGYVGVTVGLLSLVENDDQLAAVIGHEAGHVVARHAAERVSQETTSKVLLGIAKAAAGGTEFGKLLKDHGEDATRYGLLLPFSRKQELEADKLGVDFMQRAGYRPREAVKLWRNMQALDGGKSGGDLGSTHPSDAVRIQELERYLASKGWLEHHHHHH”, the protein production entry is recorded as “failed”.

Regarding “MTLPRRSGIRALPARGPTMESILGSFLLVAASEMGDKTQLLAFSLATRFRKPWPIMAGILVATLANHGLASSLGAWISANVPARMLAGVLALTFLMFGLWTLRPDSLEASKGPERFGAFLTTTVLFFLAEMGDKTQLATVALAARYGDVIRVTAGTTLGMLAADGLAVFLGEKLAARVSSARIRWAAAGLFFLFGLISAWAAIFG”, the protein production result was “failed”.

On to “MTLPSTPMPPAGSRKILLDDFQHVGSESHLGQCVNRSWTRHNCGHLENASIICTSEGMALSPHLDGNRQPSNLDNLREKAFLYQRHQHLLKFHHQLPAAGACMEVRLLNGTGRCLGRVEVLIQGTWGTVCDHFWNLAEAAVVCRQLQCGQAMAAHFGASSGKVLLDDMQCVGSKSHLGRCVHRGWARHNCGHLEDASVICAGEGLVVNLHLEGCF”, for which the protein production result is “failed”.

Take “MTLQETLNSEYQISFEEAQATAKIVDDLAEAEQKLKNLERQIKALGPINLDAIAQFDEVNERFTFLSSQKDDLLEAKNLLLSTIDDMNDEVKIRFKTSFDAIRESFKTTFAQMFVSGLADLELTSDNLLEAGVEIKVQPPGKKLSSLNLMSGGEKALTALALIFAILRVRTVPFVVLDEVEAALDEANVKRFGDYMNHFDNSNQFIVVTHRRGTMAAAGSMYGVTMADAGVSKMISVKLDSAIN”: the protein production result is recorded as “failed”.

For the sequence “MTLSGGGSASDMSGQTVLTAEDVDIDVVGEGDDGLEEKDSDAGCDSPAGPPELRLDEADEVPPAAPHHGQPQPPHQQPLTLPKEAAGAGAGPGGDVGAPEADGCKGGVGGEEGGASGGGPGAGSGSAGGLAPSKPKNSLVKPPYSYIALITMAILQSPQKKLTLSGICEFISNRFPYYREKFPAWQNSIRHNLSLNDCFVKIPREPGNPGKGNYWTLDPQSEDMFDNGSFLRRRKRFKRHQQEHLREQTALMMQSFGAYSLAAAAGAAGPYGRPYGLHPAAAAGAYSHPAAAAAAAAAAALQYPYALPPVAPVLPPAVPLLPSGELGRKAAAFGSQLGPGLQLQLNSLGAAAAAAGTAGAAGTTASLIKSEPSARPSFSIENIIGGGPAAPGGSAVGAGVAGGTGGSGGGSTAQSFLRPPGTVQSAALMATHQPLSLSRTTATIAPILSVPLSGQFLQPAASAAAAAAAAAQAKWPAQ”, the protein production entry was “failed”.

Take “MTLTALFAAFCGLYLLIGGAWLVVLGGSWYYPIAGLVMLGVTVMLFRGKRAALWLYAALLLATMIWGVWEVGFDFWALTPRSDILVFFGIWLILPFVWRRLPVPSAGAVGALVVALLISGGMLTWAGFNDPQEVNGTLSADATPAAPISTVADGDWPAYGRNQEGQRFSPLKQINADNVKNLKEAWVFRTGDLKQPNDPGEITNEVTPIKVGDTLFLCTAHQRLFALDAATGKEKWHFDPQLNADPSFQHVTCRGVSYHEAKADNAPADVVADCPRRIILPVNDGRLFAVNADNGKLCETFANKGILNLQTNMPVTTPGMYEPTSPPIITDKTIVIAGAVTDNFSTREPSGVIRGFDVNTGKLLWAFDPGAKDPNAIPSDEHHFTLNSPNSWAPAAYDAKLDLVYLPMGVTTPDIWGGNRTPEQERYASSIVALNATTGKLAWSYQTVHHDLWDMDMPSQPTLADIEVNGKTVPVIYAPAKTGNIFVLDRRNGELVVPAPEKPVPQGAAKGDYVTKTQPFSDLSFRPKKDLTGADMWGATMFDQLVCRVIFHQLRYEGIFTPPSEQGTLVFPGNLGMFEWGGISVDPNRQVAIANPMALPFVSKLIPRGPGNPMEPPKDAKGSGTESGVQPQYGVPYGVTLNPFLSPFGLPCKQPAWGYISALDLKTNEVVWKKRIGTPQDSLPFPMPVKLPFTMGMPMLGGPISTAGNVLFIGATADNYLRAYNMSNGEKLWEARLPAGGQATPMTYEVNGKQYVVISAGGHGSFGTKMGDYIVAYALPDDAK”: the protein production result was “failed”.

On to “MTLTPQELQTYLAALVRQNLQIATMIWGPPGVGKSSVVAQVARQHDLDFVDVRLSQLAPTDLRGLPVPEADAQGSGVSRWYPPEFLPRAGAGILFLDEVNMAPPTMQGMAQQLILDRRVGSYELPDGWFVWAAGNRKEDRASVFDMPAPLANRFLHLTVRPDFDSWRSYALAKGLHEHVIAFLTFRPELLWRLDPQQPAWPSPRSWEMAAQLHRAGLDASSAIGEAAGAEFAAFVRLFEQLPDLGTVLSGAGAGLKLPDEPSVRYAAVVGLAARAADAEEAYRAFTWLADSAGPEWLQLYVATLVSKFQALGQLGELAGLLGRDPRLAELVQGALSLAEGLEHHHHHH”, for which the protein production entry was “failed”.

For the sequence “MTLTSSQKPFRLLVGDREVQESDLAALLQKHQLLPELVKRMRFAQVIEGIEVQPDVLEQECQAWCKQNGIAPQQLPQLLAQQQISLEQWMSSVENRLRLRLFQEREFSHRAENRFLKRKSQLDLVTYSLLRHSDGHLIQELYQQLLHGEATFEDLATQFSQGHEAKTAGKLGPVPLSQPHPALAEVLRTAQPGQILPPRNLESYWLIIRLDQLQPVAFNETIRRQMLQELFDEWLGAEVQQTLNTL”, the protein production result is “failed”.

Regarding “MTMLQIVGALILLIAGFAILRLLFRALTSTASALAGFILLCLFGPALLAGYITERITRLFHIRWLAGVFLTIAGMIISFMWGLDGKHIALEAHTFDSVKFILTTALAAGLLALPVQIRTIQQNGLTPEDISKEINGYYCCFYTAFFLMACSAYAPLIALQFDISPSLMWWGGLLYWLAALVTLLWAASQIQALKRLTSAISQTLEEQPVLNSKSWLSSLQNDYSLPETLTERIWLTLISQRISRGELREFELADGNWLLDNAWYERNMAGFNEKLRESLSFTPDELKTLFRNRLNLSPEANDDFLDRCLDGGDWYPFSEGRRFVSFHHVDELRICASCGLTEVHHAPENHKPDPEWYCSSLCRETETLCQDIYERSHTGFISDATANGLILMKLPETWSTNEKMFASGGQGHGFAAERGNHIVDRVRLKNARILGDNNARNGADRLVSGTEIQTKYCSTAVRSVGAAFDGQNGQYRYMGNHGPMQLEVPRDQYAGAVETMKNKIREGKVPGVTDPAEASRLIRRGHLTYTQARNITRFGTIESVTYDIAEGSVVSLAAGGISFALTTSVFWLSTGDRDAALQTAAVQAGKTFTRTLAVYVTTQQLHRLSVVQGMLKHIDFSTASPTVRQALQKGTGAGNISALNKVMKGTLVTSLALVAVTTGPDMIKMLRGRISGAQFIRNLAVASSGVAGGAVGSVAGGILFSPLGPFGALTGRVVGGVLGGMIASAVSGKIAGALVEEDRVKILAMIQEQVTWLAGSFLLTGHEIENLNANLARVIDQNALEIIFAAGIQQRAATNMLIKPLVVSIIRQRPVMEYDASHLGNMVNRLEETLPPELPA”, the protein production entry was “failed”.

On to “MTMTHLNRLILISLLFVSLLLKSSTASSTVVDEGNRTSRNFRYRTHRFVPRFNHHPYHVTPHRSCDSFIRPYARSMCIELQRIHRSSRKQPLLSPPPPEIDPRYGVDKRLVPSGPNPLHN”, for which the protein production entry is on record as “failed”.

Take “MTMTRERLYLFDTTLRDGQQTPGIDFSVEDKIAIAKLLDEFGMDYVEGGYPGANPTDTAFFQQKRTASAKFVAFGMTKRAGVSASNDPGLAALVQSKSDAICFVAKSWDYHVRVALGCTNEENLESIKTSVETAVASGKEAMVDCEHFFDGFKANPDYALACAKTAYDAGARWVVLCDTNGGTQPSEVRTIVAKVIASSIPGDHLGIHAHDDTGQAVANSLAAVEAGVRQIQGTLNGIGERCGNANLISIVPTLALKPAFADRFVSGISAEALTGISRLSRAFDELLNRAPEAQAPYVGASAFATKAGIHASALAKEPATYEHVPPESVGNRRRVMVSDQGGKANFLAELKRRGIEVPRDDHRLDALISVVKEREAEGYAYEGADASFELLARKMLHGLPEFFNVTSFRCMVERRFDANGNLKTVSEAIVKVEVDGEEKMSVAEGHGPVNALDIALRKDLGKYQSEIVDLELADFKVRILNGGTEAITRVLIESHDGTGARWWTVGVSENIIDASFQALMDSIIYKLMKNREMAGLVAAE”: the protein production result was “failed”.

For “MTNDKPFVDLRQYDQSWFDRGRSAWYILLWWLVQAIAFPLTPHFSSNIRCWILRLFGARIGKGVVVRPTARFTFPWKVTIGDYSWVGDDVVFYSLDEIHIGQHCVISQKSYLCTGSHDIQDPTFRLKVAGITIGNGAWVATDCFIAPGVQIGANAVIGARSSVFTSMPTGQVCWGSPCRPQHPRLKE”, the protein production entry is reported as “failed”.

As to “MTNFKDNDGDGTKLHVVMFPWLAFGHMVPYLELSKLIAQKGHKVSFISTPRNIDRLLPWLPENLSSVINFVKLSLPVGDNKLPEDGEATTDVPFELIPYLKIAYDGLKVPVTEFLESSKPDWVLQDFAGFWLPPISRRLGIKTGFFSAFNGATLGILKPPGFEEYRTSPADFMKPPKWVPFETSVAFKLFECRFIFKGFMAETTEGNVPDIHRVGGVIDGCDVIFVRSCYEYEAEWLGLTQELHRKPVIPVGVLPPKPDEKFEDTDTWLSVKKWLDSRKSKSIVYVAFGSEAKPSQTELNEIALGLELSGLPFFWVLKTRRGPWDTEPVELPEGFEERTADRGMVWRGWVEQLRTLSHDSIGLVLTHPGWGTIIEAIRFAKPMAMLVFVYDQGLNARVIEEKKIGYMIPRDETEGFFTKESVANSLRLVMVEEEGKVYRENVKEMKGVFGDMDRQDRYVDSFLEYLVTNR”, the protein production result is recorded as “failed”.

Regarding “MTNHEQVLTDYLAAFIEELVQAGVKEAIISPGSRSTPLALMMAEHPTLKIYVDVDERSAGFFALGLAKASKRPVVLLCTSGTAAANYFPAVVEANLSQIPLIVLTADRPHELRNVGAPQAMDQLHLYGSHVKDFTDMALPENSDEMLRYAKWHSSRAVDIAMKTPRGPVHLNFPLREPLVPILEPSPFTATGKKHHHVH”, the protein production entry is “failed”.

As for “MTNIFASWGLIKLEIVRALRNRKFLFFSVIYPSALFLLIAGSADSTTKVEGTGLSLPTFFMVSMASFGALTAVLMGNSERIAKERESGWVRQLRLTTLPGRGYVLAKTASAAVISLPSILIVFVVAAAVKNVRLDAWQWLALTGTIWVGSLVFAALGVAIGYLATGDAVRPITMIVYFGLSMLGGLWMPTTTFPDWLQSIAKWLPTHAYAALGQAIELGNAPQAKDIAILAVSFVLFAGGAAWLYRKDTLKA”, the protein production result is on record as “failed”.

With “MTNILILMEREIIKILSVVEFHPLILAFHLGLMLAGVSLLSYSLFLILVKKVDIMLPLVISFMAYLTSLILLILILLLETYRFLIFDGRILVKNSLLTRNEFKFSLRDKNLIIGFYDKASLGKFAIIYGDRLLFKFLTQQKNIRLIKNFVVKSGYRLGGTYKICRVCGSINEENAEYCDFCGSREVSPYDLYWID”, the protein production result is “failed”.

Take “MTNITASIVLYNNPIDQIRQCIESMQADTRVHVLLVDNSEKKGGYTGLAADNVEILDAPGNVGFGRGHNLVLGRLAALRSEVHLVVNPDIVVSAGCVQAVADVLRQRKDVTLVGPRVVSPDGALYRSCKLLPTPWNLFARRFAPRQLYAAADARYELEAFGYDRELRLHNLSGAFLAFRSEAFTALGGFDPRYFMYLEDVDICRRAAGLGAVIFLPQAEVVHEHGKGSYRSWRLLREHMRSAILYFNRFGWFVDAERRLLNRETLARVNDMRSVVLEHHHHHH”: the protein production result was “failed”.

On to “MTNLELSGSQSYLNDESTANLSSLAGKFLVQFWGVRGLIPTPSSNTSRYGGNTACVEMQVAGKRLIFDGGTGLRILGKAWQHLQQPLEAHLFFTNSQSNRIQGFPFFAPAFIAGNCFHIYGGAASNGASIKQCLCDQMLQPHFPYPLQVMQSELQFYPLTPDSEVKLDDVTIRTALINQTQRSIGYRVTWQEYSVAYVTDLNMSAEQGEREQVLQIIQDVDLLIANATYTPPTSHDHESVDLLWQAAVEMAQKAGVRKLIISHHHPDDHDDFLDQVEKEVQSTFSDALLACEGLALPVFLEHHHHHH”, for which the protein production entry is reported as “not failed”.
